{
  "source": "paper PMC3789764",
  "binders": {"B1": {"name": "Cy3 19-bp duplex (dsDNA)", "DNA 1": "GAAAGCTATGGGCGCGGTT", "DNA 2": "AACCGCGCCCATAGCTTTC"}},
  "target": "Ku70 (in Ku70/Ku80ΔC);Ku80ΔC (in Ku70/Ku80ΔC) (human;human, UniProt P12956;P13010 1-609;1-590, |)",
  "sequence (P12956 whole entry, stated change not applied, chain 1 of 2)": "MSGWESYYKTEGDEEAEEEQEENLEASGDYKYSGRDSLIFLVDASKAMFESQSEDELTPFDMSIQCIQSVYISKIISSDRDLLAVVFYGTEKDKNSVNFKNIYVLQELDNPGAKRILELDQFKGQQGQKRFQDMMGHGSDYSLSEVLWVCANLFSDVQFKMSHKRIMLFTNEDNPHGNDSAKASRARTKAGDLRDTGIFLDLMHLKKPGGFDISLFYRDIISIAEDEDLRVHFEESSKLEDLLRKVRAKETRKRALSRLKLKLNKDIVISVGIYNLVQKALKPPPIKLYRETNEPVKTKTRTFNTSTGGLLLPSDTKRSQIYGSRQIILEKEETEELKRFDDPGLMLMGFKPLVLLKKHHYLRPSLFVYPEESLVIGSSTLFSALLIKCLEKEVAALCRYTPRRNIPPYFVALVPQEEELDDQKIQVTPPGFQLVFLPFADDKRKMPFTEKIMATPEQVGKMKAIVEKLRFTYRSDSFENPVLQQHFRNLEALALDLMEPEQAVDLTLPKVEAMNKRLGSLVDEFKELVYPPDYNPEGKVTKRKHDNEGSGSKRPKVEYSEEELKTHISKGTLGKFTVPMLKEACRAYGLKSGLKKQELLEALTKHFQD",
  "sequence (P13010 1-590, stated change not applied, chain 2 of 2)": "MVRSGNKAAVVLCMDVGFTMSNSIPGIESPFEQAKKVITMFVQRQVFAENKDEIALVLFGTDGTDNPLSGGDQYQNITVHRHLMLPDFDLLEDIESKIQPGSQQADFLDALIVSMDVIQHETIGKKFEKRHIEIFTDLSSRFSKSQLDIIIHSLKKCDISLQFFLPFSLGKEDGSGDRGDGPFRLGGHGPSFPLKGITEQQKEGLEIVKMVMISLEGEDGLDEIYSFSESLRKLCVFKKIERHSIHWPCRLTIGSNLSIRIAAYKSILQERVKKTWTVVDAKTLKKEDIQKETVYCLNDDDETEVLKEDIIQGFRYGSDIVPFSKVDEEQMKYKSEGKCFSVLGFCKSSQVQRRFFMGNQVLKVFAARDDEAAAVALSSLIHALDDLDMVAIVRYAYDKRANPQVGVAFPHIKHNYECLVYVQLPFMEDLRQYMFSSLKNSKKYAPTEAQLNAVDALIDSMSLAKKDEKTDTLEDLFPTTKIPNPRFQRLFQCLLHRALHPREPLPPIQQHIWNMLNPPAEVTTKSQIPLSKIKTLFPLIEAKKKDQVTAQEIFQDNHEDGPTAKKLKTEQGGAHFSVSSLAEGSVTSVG",
  "assay": "EMSA",
  "conditions": "protein: recombinant;recombinant; tags: N-terminal Strep tag II;; copies: 1;1",
  "data": [
    {"binder": "B1", "values": [
      {"measurement": "binding result", "value": "binds"}
    ]}
  ]
}
